Laboratory results taken from IntAct's records for PubMed 19229292.

How the values were obtained:
dlg3_rat Dlg3 = dlg3_rat Dlg3 (UniProt Q62936)
dlg1_rat Dlg1 = dlg1_rat Dlg1 (UniProt Q62696)
dlg2_rat Dlg2 = dlg2_rat Dlg2 (UniProt Q63622)

Measured: effect of a mutation on the interaction

dlg2_rat Dlg2, sequence (Q63622 whole entry, looked up): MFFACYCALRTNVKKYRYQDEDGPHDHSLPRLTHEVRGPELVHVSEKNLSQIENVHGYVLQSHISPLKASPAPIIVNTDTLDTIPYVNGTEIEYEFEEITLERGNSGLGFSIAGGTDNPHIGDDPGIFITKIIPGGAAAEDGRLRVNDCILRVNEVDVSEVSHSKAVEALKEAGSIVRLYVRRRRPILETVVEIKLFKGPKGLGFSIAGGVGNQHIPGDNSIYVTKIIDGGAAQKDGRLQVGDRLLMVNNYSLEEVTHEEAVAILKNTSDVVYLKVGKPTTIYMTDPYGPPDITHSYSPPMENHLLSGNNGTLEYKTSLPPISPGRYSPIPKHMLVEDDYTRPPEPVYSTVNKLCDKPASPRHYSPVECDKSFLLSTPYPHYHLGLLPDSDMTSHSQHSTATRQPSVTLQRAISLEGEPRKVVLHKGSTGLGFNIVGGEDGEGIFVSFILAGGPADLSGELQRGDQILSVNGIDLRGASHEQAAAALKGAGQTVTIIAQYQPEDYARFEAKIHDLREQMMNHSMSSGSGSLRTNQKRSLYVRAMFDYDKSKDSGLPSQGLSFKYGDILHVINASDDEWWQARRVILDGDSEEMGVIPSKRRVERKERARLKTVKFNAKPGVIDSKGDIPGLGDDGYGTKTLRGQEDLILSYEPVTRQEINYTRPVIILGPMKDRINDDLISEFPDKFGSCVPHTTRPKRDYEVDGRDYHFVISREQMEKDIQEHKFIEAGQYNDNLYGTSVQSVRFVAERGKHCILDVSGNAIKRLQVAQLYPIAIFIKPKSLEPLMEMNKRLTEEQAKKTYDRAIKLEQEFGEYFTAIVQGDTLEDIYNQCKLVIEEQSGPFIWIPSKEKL
dlg3_rat Dlg3, sequence (Q62936 whole entry): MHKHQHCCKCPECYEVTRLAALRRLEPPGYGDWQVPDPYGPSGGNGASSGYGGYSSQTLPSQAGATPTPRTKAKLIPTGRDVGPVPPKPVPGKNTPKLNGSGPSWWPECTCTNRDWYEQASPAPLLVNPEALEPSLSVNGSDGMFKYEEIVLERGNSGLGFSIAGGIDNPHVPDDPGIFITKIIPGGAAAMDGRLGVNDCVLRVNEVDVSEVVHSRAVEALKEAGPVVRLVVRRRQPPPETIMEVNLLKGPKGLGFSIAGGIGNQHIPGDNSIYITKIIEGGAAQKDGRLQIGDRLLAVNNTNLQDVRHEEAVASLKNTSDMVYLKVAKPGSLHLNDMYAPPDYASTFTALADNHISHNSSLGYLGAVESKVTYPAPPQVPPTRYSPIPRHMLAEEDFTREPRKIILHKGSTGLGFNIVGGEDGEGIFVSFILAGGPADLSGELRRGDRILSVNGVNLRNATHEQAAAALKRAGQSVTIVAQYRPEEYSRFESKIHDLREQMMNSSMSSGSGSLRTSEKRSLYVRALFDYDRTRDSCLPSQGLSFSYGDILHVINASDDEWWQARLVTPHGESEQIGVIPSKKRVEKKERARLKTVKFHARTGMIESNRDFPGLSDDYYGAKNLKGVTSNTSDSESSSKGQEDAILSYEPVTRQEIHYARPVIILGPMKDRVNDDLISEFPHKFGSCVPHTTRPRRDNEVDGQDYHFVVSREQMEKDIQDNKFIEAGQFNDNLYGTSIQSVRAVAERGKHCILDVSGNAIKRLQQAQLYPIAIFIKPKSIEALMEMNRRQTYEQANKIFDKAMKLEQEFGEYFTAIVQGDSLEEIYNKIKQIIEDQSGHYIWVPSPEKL
dlg1_rat Dlg1, sequence (Q62696 whole entry): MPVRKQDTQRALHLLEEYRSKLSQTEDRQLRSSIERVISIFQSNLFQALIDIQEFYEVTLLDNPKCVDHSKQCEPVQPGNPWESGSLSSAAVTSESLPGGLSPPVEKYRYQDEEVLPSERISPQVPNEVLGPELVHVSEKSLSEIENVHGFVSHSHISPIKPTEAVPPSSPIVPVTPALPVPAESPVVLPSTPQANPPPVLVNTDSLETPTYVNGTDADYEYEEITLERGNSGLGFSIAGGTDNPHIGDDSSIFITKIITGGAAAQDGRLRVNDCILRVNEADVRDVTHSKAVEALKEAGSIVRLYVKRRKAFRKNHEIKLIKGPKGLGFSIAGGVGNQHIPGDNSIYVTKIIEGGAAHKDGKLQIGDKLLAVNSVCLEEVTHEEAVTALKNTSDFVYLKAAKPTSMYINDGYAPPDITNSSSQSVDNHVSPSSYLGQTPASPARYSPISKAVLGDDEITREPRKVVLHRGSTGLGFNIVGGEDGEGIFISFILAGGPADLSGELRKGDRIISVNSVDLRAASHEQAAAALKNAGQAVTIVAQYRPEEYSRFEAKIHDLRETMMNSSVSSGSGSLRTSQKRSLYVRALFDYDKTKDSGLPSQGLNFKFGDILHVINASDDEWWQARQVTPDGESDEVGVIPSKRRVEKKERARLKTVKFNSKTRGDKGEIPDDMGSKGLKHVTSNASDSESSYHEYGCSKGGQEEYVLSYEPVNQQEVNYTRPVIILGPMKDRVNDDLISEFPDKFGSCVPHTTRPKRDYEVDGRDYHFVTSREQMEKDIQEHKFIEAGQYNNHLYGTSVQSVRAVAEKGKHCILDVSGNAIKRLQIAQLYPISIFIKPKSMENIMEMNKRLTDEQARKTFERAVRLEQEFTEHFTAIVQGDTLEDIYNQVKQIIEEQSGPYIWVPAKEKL

Diacylglycerol kinase zeta (Rattus norvegicus (Rat)), O08560 V929A
disrupting interaction: all assays above
